Results published in patent US9958461B2, “Detection of protein to protein interactions” (THE GOVERNING COUNCIL OF THE UNIVERSITY OF TORONTO, priority 2013, dated 2018).

What was measured:
EGFR-ex19del = test: Western blot of EGFR-ex19del bait phosphorylation after erlotinib (anti-phospho-EGFR); details: 0, 250 or 500 nM Erlotinib, 20 h, serum-containing media
Text: (a) Left panel: Relative luciferase activity of stable 5×GAL4UAS-HEK293T luciferase reporter cells co-transfected with various oncogenic ErbB baits and Shc1 prey. […] (b) Luciferase activity of sable 5×GAL4UAS-HEK293T luciferase reporter cells co-transfected with EGFR-Wt, EGFR-L858R or EGFR-D855A-kinase dead baits and Shc1 adaptor prey. (c)-(d) Western Blot showing expression of various receptors using anti-V5 antibodies and phosphor-tyrosine-specific antibodies. […] (h) Western Blot analysis of EGFR-Wt, EGFR-L858R, EGFR-exon19de and EGFR-L858R/T790A baits transfected into stable5×GAL4UAS-luciferase HEK293T reporter cells in serum-containing media.
Western blot analysis was performed using standard protocols. Briefly, cells were either directly harvested in 2×sample buffer or harvested in 1×reporter lysis buffer (Promega) containing protease inhibitors (Complete-EDTA, Roche) and 2×sample buffer was added after freezing the cells at −80° C. For phospho-specific antibodies, cells were lysed in Ripa buffer containing Na-orthovanadate, PMSF and protease inhibitor and 2×SB was added and samples were immediately boiled at 95° C. for 5 min and proceeded for Western Blot analysis. […] Transferred samples were immunoblotted with primary antibodies, followed by incubation with HRP-coupled secondary antibodies, and detection was performed using GE-Healthcare enhanced luminescence. […]

ErbB4/Shc1 interaction = target: T1, ErbB4/Shc1 interaction (Homo sapiens, UniProt Q15303); test: MaMTH luciferase reporter assay, ErbB4 bait / Shc1 prey with TKI-PD158780; assay type: cell-based; details: presence/absence of TKI-PD158780
T1 construct: with the advantage of testing full-length integral membrane proteins; (GGGGS)2 linker-Cub (human ubiquitin aa 35-76)-transcription factor (GAL4-mNFkB or mLexA-VP16; expressed in transfected cells; HEK293T reporter lines are used throughout)
Procedure: FIG. 7: (a) Graph illustrating relative lucifease activity of serum stimulated PPIs. Stable 5×GAL4UAS-luciferase reporter cell lines were co-transfected with ErbB2 bait and preys. Luciferase activity was measured 24 h following transfection in the absence/presence of serum. […] The plotted values represent relative-luciferase signals calculated as fold-change increase above averaged negative controls. (b) Graph illustrating relative luciferase activity of drug-inhibited protein-protein interactions. Following transfection, ErbB4 interaction with either Shc1 or non-interacting Pex13 was measured in presence/absence of non-specfic TKI-PD158780. Plotted values represent relative luciferase signals calculated as fold-change increase above bait only controls.
We then sought to more specifically focus on the ErbB subfamily of receptor tyrosine kinases (RTK) to investigate ligand-dependent and drug-inhibited interactions. The ErbB family consists of 4 closely related receptors: EGFR, ErbB2, ErbB3, and ErbB4. Elucidation of cell signaling via all four ErbB receptors is of great therapeutic interest since they are frequently found mutated or overexpressed in several cancer. […]

EGFR-Wt [1] = test: MaMTH EGFR-interactor screen, lentiviral preys against EGFR-wildtype bait (interaction score); assay type: cell-based, human; details: ratio of EGFR-Wt mean to EGFR-L858R mean interaction score
Procedure: (§1) After lentivirus harvest, target cells (stable 5×GAL4UAS-luciferase reporter-HEK293T cells) were infected at a multiplicity of infection (MOI) of around 0.3-0.4 to ensure single copy integration per cell. Cells were selected in puromycin for at least 48 h and transfected with either EGFR-wildtype or EGFR-L858R baits in triplicates. 24 h after transfection, cells were lysed and luciferase assays performed. On each set of interaction assays, various negative controls were included. To calculate a MaMTH-interaction scores, negative controls were averaged and the fold-change of luciferase activity compared to the averaged controls was calculated and defined as the interaction score.
(§2) Each set of experiments contains a defined set of negative controls in at least three replicates. Negative controls were chosen as such that there is a range of controls showing high-background luciferase activity (normally cytosolic proteins: Fabp5, Pex19) as well as medium-background luciferase activity (membrane-bound interactors: Pex7, GABBR2). Negative controls were averaged and the fold-change of luciferase activity was calculated. Using this method, we have a stringent cut-off and chose an interaction score >1 to be interacting proteins.
(§3) Our cut-off of 1 is based on fold-change difference in luciferase activity over averaged negative controls. Negative controls include cytosolic preys (which tend to promiscuously bind to many proteins), plasma membrane- and peroxisomal-prey proteins. In general, we chose stringent conditions by testing preys that tend to have high luciferase background with any bait tested, in order to generate high-confidence interaction data. […] Phosphorylated tyrosine residues on the receptor are typically docking sites for downstream cytoplasmic targets and recognized through SH2 or PTB domains^43.

EGFR-Wt [2] = target: T2, EGFR-Wt (Homo sapiens, UniProt P00533); test: as above; assay type: cell-based; details: MaMTH interaction score of prey with EGFR-Wt bait, mean
T2 construct: with the advantage of testing full-length integral membrane proteins; (GGGGS)2 linker-Cub (human ubiquitin aa 35-76)-GAL4(1-147)-mNFkB(364-550) (C); expressed in transfected cells
Procedure: as §1, §2, §3

EGFR-L858R = target: T3, EGFR-L858R (Homo sapiens, UniProt P00533, L858R); test: MaMTH EGFR-interactor screen, lentiviral preys against EGFR-L858R bait (interaction score); assay type: cell-based; details: MaMTH interaction score of prey with EGFR-L858R bait
T3 construct: with the advantage of testing full-length integral membrane proteins; (GGGGS)2 linker-Cub (human ubiquitin aa 35-76)-GAL4(1-147)-mNFkB(364-550) (C); expressed in transfected cells
Procedure: as §1, §2, §3

T1 sequence (Q15303 26-1308): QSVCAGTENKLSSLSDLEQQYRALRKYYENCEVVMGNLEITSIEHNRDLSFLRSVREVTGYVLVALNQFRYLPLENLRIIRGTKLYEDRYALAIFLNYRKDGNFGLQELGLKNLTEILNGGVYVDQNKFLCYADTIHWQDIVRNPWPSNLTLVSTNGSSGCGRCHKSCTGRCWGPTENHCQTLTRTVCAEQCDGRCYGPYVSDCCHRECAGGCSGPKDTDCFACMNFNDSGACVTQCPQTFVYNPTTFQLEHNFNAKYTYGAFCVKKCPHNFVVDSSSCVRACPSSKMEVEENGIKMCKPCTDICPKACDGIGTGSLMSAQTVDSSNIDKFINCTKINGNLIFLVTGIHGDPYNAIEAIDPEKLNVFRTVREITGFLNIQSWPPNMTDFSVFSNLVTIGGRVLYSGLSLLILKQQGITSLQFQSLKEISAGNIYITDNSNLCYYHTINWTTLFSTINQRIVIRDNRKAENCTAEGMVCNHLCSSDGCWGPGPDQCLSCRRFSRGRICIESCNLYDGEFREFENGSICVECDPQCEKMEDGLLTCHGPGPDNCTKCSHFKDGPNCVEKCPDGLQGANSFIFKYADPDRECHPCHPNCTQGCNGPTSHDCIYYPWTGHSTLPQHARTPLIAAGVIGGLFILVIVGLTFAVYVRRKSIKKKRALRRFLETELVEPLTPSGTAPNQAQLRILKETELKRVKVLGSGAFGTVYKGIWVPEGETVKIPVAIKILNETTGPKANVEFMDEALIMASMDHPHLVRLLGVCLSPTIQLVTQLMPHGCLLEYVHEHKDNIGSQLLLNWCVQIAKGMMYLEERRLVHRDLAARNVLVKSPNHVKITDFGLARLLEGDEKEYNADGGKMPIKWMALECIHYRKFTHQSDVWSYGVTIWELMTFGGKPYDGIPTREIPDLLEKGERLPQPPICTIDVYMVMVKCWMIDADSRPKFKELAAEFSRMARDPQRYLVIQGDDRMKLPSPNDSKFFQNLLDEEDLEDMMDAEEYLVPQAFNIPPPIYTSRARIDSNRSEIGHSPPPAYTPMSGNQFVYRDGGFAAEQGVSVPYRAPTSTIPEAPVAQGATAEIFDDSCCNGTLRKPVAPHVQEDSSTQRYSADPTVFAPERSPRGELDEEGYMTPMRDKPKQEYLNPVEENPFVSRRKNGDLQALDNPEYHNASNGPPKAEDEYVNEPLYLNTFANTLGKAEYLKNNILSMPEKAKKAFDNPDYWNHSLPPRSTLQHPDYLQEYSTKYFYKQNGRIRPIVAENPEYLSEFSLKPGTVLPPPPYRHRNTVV

Compound | Effect on Shc1-adaptor protein binding to ErbB4 (ErbB4/Shc1 interaction) | EGFR-Wt mean (EGFR-Wt [2]) | EGFR-L858R mean (EGFR-L858R) | Receptor phosphorylation upon Erlotinib treatment (Western blot) (EGFR-ex19del) | Wt/L858R (EGFR-Wt [1])
C#Cc1cccc(Nc2ncnc3cc(OCCOC)c(OCCOC)cc23)c1 [Erlotinib] |  |  |  | sensitive to Erlotinib | 
CNc1cc2c(Nc3cccc(Br)c3)ncnc2cn1 [TKI-PD158780] | reduced Shc1-adaptor protein binding |  |  |  | 
ABL1 |  | 1.89 | 0.50 |  | 3.76
AKT1 |  | 4.12 | 3.11 |  | 1.32
ARRB1 |  | 2.72 | 6.57 |  | 0.41
ASAP2 |  | 1.77 | 0.97 |  | 1.81
BLK |  | 4.51 | 8.25 |  | 0.55
CD3E |  | 1.39 | 0.76 |  | 1.83
CD33 |  | 0.37 | 1.24 |  | 0.30
EZR |  | 8.30 | 5.00 |  | 1.66
GAB2 |  | 0.97 | 1.27 |  | 0.76
Gapdh |  | 3.44 | 3.79 |  | 0.91
Grb2 |  |  |  |  | 0.28
HCK |  | 3.94 | 3.96 |  | 1.00
HDAC6 |  | 24.86 | 14.90 |  | 1.67
HSPA1A |  | 12.77 | 19.20 |  | 0.67
Hsp90aa1 |  | 74.20 | 97.06 |  | 0.76
IKBKG |  | 8.28 | 6.55 |  | 1.26
ITGB2 |  | 2.62 | 0.83 |  | 3.16
ITSN2 |  | 2.09 | 0.60 |  | 3.50

Compound | Effect on Shc1-adaptor protein binding to ErbB4 (ErbB4/Shc1 interaction) | EGFR-Wt mean (EGFR-Wt [2]) | EGFR-L858R mean (EGFR-L858R) | Receptor phosphorylation upon Erlotinib treatment (Western blot) (EGFR-ex19del) | Wt/L858R (EGFR-Wt [1])
MAP4K1 |  | 1.51 | 1.76 |  | 0.86
MUC1 |  | 1.09 | 4.18 |  | 0.26
NCK2 |  | 4.35 | 4.87 |  | 0.89
NR3C1 |  | 3.21 | 2.59 |  | 1.24
NTRK2 |  | 1.57 | 0.97 |  | 1.61
PIK3R2 |  | 1.17 | 3.25 |  | 0.36
PIK3R3 |  | 1.55 | 2.40 |  | 0.64
PIM1 |  | 1.91 | 1.51 |  | 1.27
PRKCA |  | 11.13 | 7.70 |  | 1.45
PTPN1 |  | 44.56 | 55.90 |  | 0.80
PTPN6 |  | 1.51 | 1.43 |  | 1.05
RELA |  | 1.27 | 1.18 |  | 1.08
Rgs4 |  | 0.58 | 1.39 |  | 0.41
SFN |  | 5.60 | 14.70 |  | 0.38
SOCS3 |  | 1.59 | 9.83 |  | 0.16
STAT3 |  | 7.35 | 4.20 |  | 1.75
TGFA |  | 2.52 | 1.59 |  | 1.59
YES1 |  | 1.91 | 1.23 |  | 1.55
YWHAZ |  | 7.58 | 13.94 |  | 0.54

Second part, led by results:

Effect on Shc1-adaptor protein binding to ErbB4 (ErbB4/Shc1 interaction) | EGFR-Wt mean (EGFR-Wt [2]) | EGFR-L858R mean (EGFR-L858R) | Compound | Receptor phosphorylation upon Erlotinib treatment (Western blot) (EGFR-ex19del) | Wt/L858R (EGFR-Wt [1])
 | 0.93 | 2.18 | APP |  | 0.43
 | 1.22 | 1.32 | DOK6 |  | 0.92
 | 0.85 | 1.15 | FASLG |  | 0.74
 | 2.62 | 4.99 | FGR |  | 0.52
 | 2.84 | 5.36 | FRK |  | 0.53
 | 27.58 | 14.81 | HSP90AB1 |  | 1.86
 | 25.00 | 39.20 | HSPA8 |  | 0.64
 | 1.48 | 2.83 | MAPK9 |  | 0.52
 | 1.23 | 4.30 | PIK3C2B |  | 0.29
 | 1.72 | 4.46 | S100A4 |  | 0.39
 | 2.99 | 3.76 | SH2B1 |  | 0.79
 | 0.84 | 3.03 | STAT2 |  | 0.28
 | 10.28 | 7.04 | STUB1 |  | 1.46
 | 0.58 | 1.69 | TLR2 |  | 0.34
 | 7.28 | 3.47 | TRAF2 |  | 2.10
 | 7.39 | 10.44 | YWHAB |  | 0.71
 | 1.32 | 1.42 | YWHAG |  | 0.93
 | 8.19 | 11.96 | YWHAQ |  | 0.69
